Data reported in patent publication US20230272016A1, “PEPTIDES FOR IMMUNOTHERAPY” (Second Genome, Inc., priority 2020, published 2023).

Experiments:
[1] = tested on: Protein AMBP; test: Pull-down and mass spectrometry target capture; assay type: binding, human; settings: 100.0 = no target protein observed in the control pulldown
Method: (§1) To identify binding partners of SG-3-0020 in human cells, pull-down and mass spectrometry analysis were used (FIG. 15). Multiple target capture experiments were performed with SG-3-0020 and controls. Binding conditions and cross-linkers were varied to achieve maximum enrichment of peptide over controls. Nine putative binding partners to SG-3-0020 were identified using MS and were nominated for confirmation using CRISPR Knock Out (KO) Experiments (Table 12, FIG. 16). The enrichment ratio was calculated as described below: […]

[2] = molecular target: T1, CD2 (cluster of differentiation 2) (Homo sapiens, UniProt P06729); test: Pull-down and mass spectrometry target capture; assay type: binding; settings: 100.0 = no target protein observed in the control pulldown
T1 construct: endogenous in cells
T1 sequence (P06729 25-351): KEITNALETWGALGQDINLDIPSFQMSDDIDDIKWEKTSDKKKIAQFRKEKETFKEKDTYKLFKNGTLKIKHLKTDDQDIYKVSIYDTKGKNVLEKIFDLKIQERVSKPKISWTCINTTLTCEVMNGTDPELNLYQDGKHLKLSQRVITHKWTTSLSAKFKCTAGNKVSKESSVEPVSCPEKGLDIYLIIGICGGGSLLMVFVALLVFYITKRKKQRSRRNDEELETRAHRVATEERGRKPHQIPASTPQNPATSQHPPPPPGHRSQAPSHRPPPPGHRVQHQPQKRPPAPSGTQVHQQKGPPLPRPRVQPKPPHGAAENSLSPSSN
Method: as §1

[3] = molecular target: T2, Prohibitin (Homo sapiens, UniProt P35232); test: Pull-down and mass spectrometry target capture; assay type: binding; settings: 100.0 = no target protein observed in the control pulldown
T2 construct: endogenous in cells
T2 sequence (P35232 1-272): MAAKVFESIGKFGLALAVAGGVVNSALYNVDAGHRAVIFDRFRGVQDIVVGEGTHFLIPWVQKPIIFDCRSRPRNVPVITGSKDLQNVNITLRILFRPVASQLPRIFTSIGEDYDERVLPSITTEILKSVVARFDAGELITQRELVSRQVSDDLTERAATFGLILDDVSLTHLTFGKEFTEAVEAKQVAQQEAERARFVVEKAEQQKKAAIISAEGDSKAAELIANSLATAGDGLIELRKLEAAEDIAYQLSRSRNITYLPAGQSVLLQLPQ
Method: as §1

[4] = molecular target: T3, Tumor necrosis factor receptor superfamily member 4 (Homo sapiens, UniProt P43489); test: Pull-down and mass spectrometry target capture; assay type: binding; settings: 100.0 = no target protein observed in the control pulldown
T3 construct: endogenous in cells
T3 sequence (P43489 29-277): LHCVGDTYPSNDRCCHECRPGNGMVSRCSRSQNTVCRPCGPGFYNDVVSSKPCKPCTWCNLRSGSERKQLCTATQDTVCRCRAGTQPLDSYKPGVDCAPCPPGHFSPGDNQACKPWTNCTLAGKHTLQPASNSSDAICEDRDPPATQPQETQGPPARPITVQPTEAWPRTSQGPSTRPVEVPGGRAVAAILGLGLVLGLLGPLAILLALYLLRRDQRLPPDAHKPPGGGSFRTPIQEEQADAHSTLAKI
Method: as §1

[5] = tested on: primary human unstimulated T cells; test: CRISPR knock-out target validation in T cells stimulated with anti-CD3 and peptide; assay type: cell-based; settings: targets identified from mass spectrometry
Method: Functional validation was performed by CRISPR knock-out to confirm target effects on SG-3-0020-mediated activity. […] RNPs were introduced into primary human unstimulated T cells via Nucleofection and cells were cultured for 96 hours. OR1A1 served as negative control and CD3E was used as positive control. Post knock-down T cells were stimulated in vitro culture of Purified T cells with anti-CD3 (0.1 μg/mL) and SG-3-05429 (mutant SG-3-0020 with improved activity) (10 μM) and was incubated for 48 hours. A decrease in IFN-γ secretion (FIG. 17A) and a decrease in activated CD4 and CD8 T cell subsets was also observed (CD25+, PD-1+=Markers of T cell activation) (FIG. 17B) was observed after target knock-down compared to the negative control (OR1A1). […] Activation of CD2 has the potential to be a therapeutic opportunity.

[6] = tested on: naïve CD4+ and CD8+ T cells (Th0); settings: incubation of a naïve T cell with the polypeptide; cited from earlier work
[7] = molecular target: Bone marrow stromal antigen 2 (Homo sapiens, UniProt Q10589); test: Pull-down and mass spectrometry target capture; assay type: binding; set-up: endogenous in cells; settings: 100.0 = no target protein observed in the control pulldown
Chain of Bone marrow stromal antigen 2 (Q10589 1-161 limits assumed): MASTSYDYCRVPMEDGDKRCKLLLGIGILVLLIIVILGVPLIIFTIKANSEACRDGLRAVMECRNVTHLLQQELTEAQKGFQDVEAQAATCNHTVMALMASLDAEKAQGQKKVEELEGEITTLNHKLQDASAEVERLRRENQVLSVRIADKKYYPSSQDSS
Method: as §1

[8] = molecular target: Cation-independent mannose-6-phosphate receptor (Homo sapiens, UniProt P11717); test: Pull-down and mass spectrometry target capture; assay type: binding; set-up: endogenous in cells; settings: 100.0 = no target protein observed in the control pulldown
Chain of Cation-independent mannose-6-phosphate receptor (P11717 41-2491): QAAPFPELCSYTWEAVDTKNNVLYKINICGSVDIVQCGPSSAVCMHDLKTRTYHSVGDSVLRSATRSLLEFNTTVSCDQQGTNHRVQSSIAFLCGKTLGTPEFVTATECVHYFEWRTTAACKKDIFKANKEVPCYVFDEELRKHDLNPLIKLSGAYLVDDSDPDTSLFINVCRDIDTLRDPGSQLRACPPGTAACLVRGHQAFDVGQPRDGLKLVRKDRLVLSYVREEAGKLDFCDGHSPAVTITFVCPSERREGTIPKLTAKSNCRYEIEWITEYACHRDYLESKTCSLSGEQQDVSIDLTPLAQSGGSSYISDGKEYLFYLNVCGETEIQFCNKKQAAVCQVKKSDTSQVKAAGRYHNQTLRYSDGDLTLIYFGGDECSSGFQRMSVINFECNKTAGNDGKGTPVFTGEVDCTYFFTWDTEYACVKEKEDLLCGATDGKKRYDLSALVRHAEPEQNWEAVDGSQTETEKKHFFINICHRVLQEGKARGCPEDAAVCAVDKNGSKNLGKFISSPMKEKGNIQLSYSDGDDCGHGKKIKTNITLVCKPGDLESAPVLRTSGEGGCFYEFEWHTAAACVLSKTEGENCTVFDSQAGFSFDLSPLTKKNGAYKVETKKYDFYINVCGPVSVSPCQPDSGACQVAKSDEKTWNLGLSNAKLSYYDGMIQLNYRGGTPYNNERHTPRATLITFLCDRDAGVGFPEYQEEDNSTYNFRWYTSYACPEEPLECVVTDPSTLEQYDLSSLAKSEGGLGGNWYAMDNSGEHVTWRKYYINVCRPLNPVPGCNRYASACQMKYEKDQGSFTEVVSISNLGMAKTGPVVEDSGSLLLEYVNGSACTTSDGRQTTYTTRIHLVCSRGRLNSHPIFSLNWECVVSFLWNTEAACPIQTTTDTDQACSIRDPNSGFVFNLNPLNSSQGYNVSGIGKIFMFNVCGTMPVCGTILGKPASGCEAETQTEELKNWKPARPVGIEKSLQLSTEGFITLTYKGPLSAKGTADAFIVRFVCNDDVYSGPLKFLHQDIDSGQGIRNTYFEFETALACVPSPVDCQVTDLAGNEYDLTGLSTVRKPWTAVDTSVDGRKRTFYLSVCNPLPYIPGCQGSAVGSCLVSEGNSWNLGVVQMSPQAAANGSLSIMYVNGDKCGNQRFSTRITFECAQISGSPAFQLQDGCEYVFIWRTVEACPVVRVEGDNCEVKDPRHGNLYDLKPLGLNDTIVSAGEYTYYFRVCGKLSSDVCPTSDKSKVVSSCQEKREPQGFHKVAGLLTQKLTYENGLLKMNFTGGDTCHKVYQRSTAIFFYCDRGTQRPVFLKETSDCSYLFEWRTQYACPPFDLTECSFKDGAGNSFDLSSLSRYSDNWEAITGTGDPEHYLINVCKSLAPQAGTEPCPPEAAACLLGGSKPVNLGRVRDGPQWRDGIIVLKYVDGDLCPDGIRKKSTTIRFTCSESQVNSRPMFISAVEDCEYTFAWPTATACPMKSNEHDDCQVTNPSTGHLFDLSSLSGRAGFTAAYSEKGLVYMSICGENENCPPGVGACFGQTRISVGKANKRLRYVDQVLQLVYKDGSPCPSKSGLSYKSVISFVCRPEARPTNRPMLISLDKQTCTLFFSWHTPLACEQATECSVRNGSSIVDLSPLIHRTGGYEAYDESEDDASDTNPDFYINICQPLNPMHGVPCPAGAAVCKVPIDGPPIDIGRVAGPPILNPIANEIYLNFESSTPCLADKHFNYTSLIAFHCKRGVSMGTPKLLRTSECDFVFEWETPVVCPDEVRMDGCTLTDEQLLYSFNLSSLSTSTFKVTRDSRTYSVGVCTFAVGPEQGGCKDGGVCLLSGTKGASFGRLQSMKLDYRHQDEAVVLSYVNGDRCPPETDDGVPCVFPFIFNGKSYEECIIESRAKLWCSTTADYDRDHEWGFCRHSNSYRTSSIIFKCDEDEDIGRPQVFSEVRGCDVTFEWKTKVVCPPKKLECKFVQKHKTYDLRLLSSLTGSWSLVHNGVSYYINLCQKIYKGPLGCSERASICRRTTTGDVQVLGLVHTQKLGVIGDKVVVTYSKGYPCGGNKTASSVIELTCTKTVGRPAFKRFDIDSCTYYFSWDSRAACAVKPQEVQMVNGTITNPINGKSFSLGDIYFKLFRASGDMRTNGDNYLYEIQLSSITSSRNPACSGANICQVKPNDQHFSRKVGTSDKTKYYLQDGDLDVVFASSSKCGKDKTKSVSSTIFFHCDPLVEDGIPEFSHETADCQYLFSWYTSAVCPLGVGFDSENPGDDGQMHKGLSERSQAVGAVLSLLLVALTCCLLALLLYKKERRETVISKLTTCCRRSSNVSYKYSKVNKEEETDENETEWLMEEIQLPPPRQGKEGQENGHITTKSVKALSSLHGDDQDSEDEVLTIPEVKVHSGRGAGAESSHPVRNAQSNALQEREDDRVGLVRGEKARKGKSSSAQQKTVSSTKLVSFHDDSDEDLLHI
Method: as §1

[9] = molecular target: Low-density lipoprotein receptor (Homo sapiens, UniProt P01130); test: Pull-down and mass spectrometry target capture; assay type: binding; set-up: endogenous in cells; settings: 100.0 = no target protein observed in the control pulldown
Method: as §1

[10] = molecular target: Teneurin-3 (Homo sapiens, UniProt Q9P273); test: Pull-down and mass spectrometry target capture; assay type: binding; set-up: endogenous in cells; settings: 100.0 = no target protein observed in the control pulldown
Method: as §1

[11] = molecular target: Tumor necrosis factor (Homo sapiens, UniProt P01375); test: Pull-down and mass spectrometry target capture; assay type: binding; set-up: endogenous in cells; settings: 100.0 = no target protein observed in the control pulldown
Chain of Tumor necrosis factor (P01375 whole entry): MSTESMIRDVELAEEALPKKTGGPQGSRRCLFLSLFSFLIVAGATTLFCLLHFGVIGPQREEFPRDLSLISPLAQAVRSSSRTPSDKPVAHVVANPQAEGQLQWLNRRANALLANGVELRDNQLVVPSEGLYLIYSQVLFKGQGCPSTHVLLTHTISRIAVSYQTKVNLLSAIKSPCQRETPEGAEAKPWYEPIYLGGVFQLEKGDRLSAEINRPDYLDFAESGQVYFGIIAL
Method: as §1

[12] = molecular target: T4, CXCR3 (human, UniProt P49682 1-368); test: CXCR3 activity assay with ligand, with SG-3-00802 or SG-3-05021 added
T4 construct: whole, on cells; The reporter constructs are not described; also called CSCR3
T4 sequence (looked up): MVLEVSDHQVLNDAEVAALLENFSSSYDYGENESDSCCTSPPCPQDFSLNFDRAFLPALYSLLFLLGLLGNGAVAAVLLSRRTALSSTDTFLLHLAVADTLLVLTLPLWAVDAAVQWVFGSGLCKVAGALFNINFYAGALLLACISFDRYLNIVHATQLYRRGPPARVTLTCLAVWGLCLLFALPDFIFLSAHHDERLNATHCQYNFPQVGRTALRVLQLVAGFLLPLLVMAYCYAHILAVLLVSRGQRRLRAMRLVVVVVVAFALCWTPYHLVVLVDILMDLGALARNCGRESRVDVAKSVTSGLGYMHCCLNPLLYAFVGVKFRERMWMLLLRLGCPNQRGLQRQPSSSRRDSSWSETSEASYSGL

[13] = molecular target: T4, CXCR3; test: cell-based or functional assay
[14] = molecular target: CXCR4 (human, UniProt P61073 1-352); test: cell-based or functional assay
Chain of CXCR4 (P61073 whole entry): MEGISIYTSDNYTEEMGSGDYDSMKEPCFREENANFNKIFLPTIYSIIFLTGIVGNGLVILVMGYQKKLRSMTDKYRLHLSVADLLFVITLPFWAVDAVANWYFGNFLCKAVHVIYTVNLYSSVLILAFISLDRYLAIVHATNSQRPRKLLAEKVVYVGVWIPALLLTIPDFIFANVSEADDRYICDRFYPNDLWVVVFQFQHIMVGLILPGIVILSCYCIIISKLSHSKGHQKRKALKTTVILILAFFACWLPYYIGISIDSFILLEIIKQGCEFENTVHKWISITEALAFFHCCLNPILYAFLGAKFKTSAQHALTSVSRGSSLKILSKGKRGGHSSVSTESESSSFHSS

[15] = molecular target: T5, CCR9 (human, UniProt P51686 1-369, limits assumed); test: cell-based or functional assay
T5 sequence (looked up): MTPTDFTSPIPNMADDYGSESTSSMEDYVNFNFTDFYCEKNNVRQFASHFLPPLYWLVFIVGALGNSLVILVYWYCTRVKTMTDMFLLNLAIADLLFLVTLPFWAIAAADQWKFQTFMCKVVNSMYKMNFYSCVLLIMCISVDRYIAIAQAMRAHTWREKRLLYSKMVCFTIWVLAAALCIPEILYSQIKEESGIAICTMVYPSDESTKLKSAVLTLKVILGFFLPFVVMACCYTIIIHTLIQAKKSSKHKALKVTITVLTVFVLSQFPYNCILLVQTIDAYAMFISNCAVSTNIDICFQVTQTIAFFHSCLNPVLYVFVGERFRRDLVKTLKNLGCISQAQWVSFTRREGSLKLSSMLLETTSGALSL

[16] = molecular target: T6, CHRM5 (human, UniProt P08912 1-532); test: cell-based or functional assay
T6 sequence (looked up): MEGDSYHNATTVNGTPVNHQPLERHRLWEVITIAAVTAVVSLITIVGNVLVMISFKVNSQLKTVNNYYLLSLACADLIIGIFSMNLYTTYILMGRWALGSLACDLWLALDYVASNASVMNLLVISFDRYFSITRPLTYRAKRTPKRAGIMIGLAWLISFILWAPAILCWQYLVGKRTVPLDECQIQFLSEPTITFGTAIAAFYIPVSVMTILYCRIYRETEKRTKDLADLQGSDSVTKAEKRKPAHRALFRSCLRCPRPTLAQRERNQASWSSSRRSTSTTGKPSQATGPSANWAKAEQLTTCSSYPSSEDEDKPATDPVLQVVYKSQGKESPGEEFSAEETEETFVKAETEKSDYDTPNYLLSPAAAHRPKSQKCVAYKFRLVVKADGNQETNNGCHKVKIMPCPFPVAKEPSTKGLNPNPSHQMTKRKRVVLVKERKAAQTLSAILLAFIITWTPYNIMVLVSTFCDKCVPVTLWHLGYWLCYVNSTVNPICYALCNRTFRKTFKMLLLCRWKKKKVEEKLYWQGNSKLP

[17] = molecular target: T7, HCRTR2 (human, UniProt O43614 1-444); test: cell-based or functional assay
T7 sequence (looked up): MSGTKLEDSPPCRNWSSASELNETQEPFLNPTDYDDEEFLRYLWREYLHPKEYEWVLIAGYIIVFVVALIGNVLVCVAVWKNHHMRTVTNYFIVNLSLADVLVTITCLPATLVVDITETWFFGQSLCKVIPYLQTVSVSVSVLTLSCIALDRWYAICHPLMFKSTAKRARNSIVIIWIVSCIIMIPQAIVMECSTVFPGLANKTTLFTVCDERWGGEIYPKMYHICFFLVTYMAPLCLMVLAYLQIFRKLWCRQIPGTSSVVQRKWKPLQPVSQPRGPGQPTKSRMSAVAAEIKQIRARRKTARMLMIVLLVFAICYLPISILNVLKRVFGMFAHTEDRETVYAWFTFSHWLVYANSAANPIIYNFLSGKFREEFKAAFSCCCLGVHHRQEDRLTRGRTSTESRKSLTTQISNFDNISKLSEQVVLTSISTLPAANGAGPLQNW

[18] = molecular target: T8, MRGPRX2 (human, UniProt Q96LB1 1-330); test: cell-based or functional assay
T8 sequence (looked up): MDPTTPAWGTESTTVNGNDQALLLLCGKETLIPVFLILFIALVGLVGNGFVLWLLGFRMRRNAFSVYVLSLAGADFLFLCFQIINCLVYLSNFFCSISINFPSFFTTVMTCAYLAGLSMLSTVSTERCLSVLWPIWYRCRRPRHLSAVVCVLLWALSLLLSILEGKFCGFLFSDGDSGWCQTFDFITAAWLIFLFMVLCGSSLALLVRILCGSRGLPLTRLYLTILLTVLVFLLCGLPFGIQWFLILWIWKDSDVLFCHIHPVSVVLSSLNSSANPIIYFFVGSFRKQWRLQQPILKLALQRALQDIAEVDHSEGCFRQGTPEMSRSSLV

[19] = molecular target: SSTR1 (human, UniProt P30872 1-391); test: cell-based or functional assay
Chain of SSTR1 (P30872 whole entry): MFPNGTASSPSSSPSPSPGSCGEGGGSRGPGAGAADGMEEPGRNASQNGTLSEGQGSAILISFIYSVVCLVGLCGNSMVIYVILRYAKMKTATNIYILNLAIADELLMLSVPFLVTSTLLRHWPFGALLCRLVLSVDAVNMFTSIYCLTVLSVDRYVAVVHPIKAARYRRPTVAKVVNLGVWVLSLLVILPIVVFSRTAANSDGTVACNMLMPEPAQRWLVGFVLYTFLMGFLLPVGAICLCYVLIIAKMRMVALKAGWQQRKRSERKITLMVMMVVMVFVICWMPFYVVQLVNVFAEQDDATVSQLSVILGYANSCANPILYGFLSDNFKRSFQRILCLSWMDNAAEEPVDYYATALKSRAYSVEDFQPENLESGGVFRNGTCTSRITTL

[20] = molecular target: TSHR(L) (human, UniProt P16473-1 21-764, limits assumed); test: cell-based or functional assay
Chain of TSHR(L) (P16473 21-764 limits assumed): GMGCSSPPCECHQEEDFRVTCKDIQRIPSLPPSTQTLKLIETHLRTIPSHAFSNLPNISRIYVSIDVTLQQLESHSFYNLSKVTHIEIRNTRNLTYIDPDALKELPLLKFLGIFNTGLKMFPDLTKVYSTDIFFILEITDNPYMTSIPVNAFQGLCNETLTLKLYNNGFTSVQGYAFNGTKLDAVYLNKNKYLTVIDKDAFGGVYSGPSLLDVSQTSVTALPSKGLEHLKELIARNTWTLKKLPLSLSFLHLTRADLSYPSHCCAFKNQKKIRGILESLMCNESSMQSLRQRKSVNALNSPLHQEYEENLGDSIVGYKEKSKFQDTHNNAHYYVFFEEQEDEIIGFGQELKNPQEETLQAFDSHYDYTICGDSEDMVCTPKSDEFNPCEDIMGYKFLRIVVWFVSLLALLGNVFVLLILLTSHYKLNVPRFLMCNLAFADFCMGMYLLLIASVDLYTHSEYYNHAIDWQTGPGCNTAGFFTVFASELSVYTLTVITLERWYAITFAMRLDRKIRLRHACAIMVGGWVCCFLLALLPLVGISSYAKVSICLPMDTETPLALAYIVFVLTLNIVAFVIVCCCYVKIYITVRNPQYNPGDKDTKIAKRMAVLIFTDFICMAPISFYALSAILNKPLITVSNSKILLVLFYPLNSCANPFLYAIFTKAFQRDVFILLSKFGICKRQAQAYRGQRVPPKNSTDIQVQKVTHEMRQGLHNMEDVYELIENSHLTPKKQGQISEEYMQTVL

## MLSTKKTKTHDHYPCGRMRDPGWHDWRACLTHQGIEEDEWPV [SG-3-0020, Bifidobacterium polypeptide]
[1]
  Enrichment ratio: 69.1
[2]
  Enrichment ratio: 1.9
[3]
  Enrichment ratio: 1.9
[4]
  Enrichment ratio: 100.0
[5]
  human targets confirmed via CRISPR KO experiments: CD2, BST2, and TNF
[6]
  number of CD4+ and/or CD8+ T cells having a CD25+/FoxP3− phenotype: increase
[7]
  Enrichment ratio: 34.5
[8]
  Enrichment ratio: 2.1
[9]
  Enrichment ratio: 100.0
[10]
  Enrichment ratio: 3.4
[11]
  Enrichment ratio: 67.2

B1: CXCL11 (ligand, UniProt O14625 22-94, looked up)
chain: FPMFKRGRCLCIGPGVKAVKVADIEKASIMYPSNNCDKIEVIITLKENKGQRCLNPKSKQARLIIKKVERKNF
[12]
  binding result: binds

## MKVRPSVKPMCEKCKIIRRKGRVMVICENPKHKQRQG [SG-3-00802]
[13]
  % Agonist Activity, PathHunter β-arrestin: -4%
  % Antagonist Activity, PathHunter β-arrestin: -32%
[14]
  % Agonist Activity, PathHunter β-arrestin: -14%
  % Antagonist Activity, PathHunter β-arrestin: 99%
[15]
  % Agonist Activity, PathHunter β-arrestin: 2%
  % Antagonist Activity, PathHunter β-arrestin: -48%
[16]
  % Agonist Activity, PathHunter β-arrestin: 28%
  % Antagonist Activity, PathHunter β-arrestin: 11%
[17]
  % Agonist Activity, PathHunter β-arrestin: 0%
  % Antagonist Activity, PathHunter β-arrestin: 67%
[18]
  % Agonist Activity, PathHunter β-arrestin: 66%
  % Antagonist Activity, PathHunter β-arrestin: -9%
[19]
  % Agonist Activity, PathHunter β-arrestin: -137%
  % Antagonist Activity, PathHunter β-arrestin: 61%
[20]
  % Agonist Activity, PathHunter β-arrestin: 3%
  % Antagonist Activity, PathHunter β-arrestin: 77%
